Test [1] addresses recombinant non-phosphorylated tau (UniProt P10636). Briefly: sandwich ELISA, antibody coated, CSF spiked with tau, detection with biotinylated AT120 and HT7. Background: An ELISA detects its analyte on a solid surface through an enzyme-linked reagent.
Test [2] concerns the target phosphorylated tau prepared by incubating recombinant non-phosphorylated tau with a rat brain extract (UniProt P10636). Described as above.
Test [3] concerns the target recombinant non-phosphorylated tau (UniProt P10636). Briefly: sandwich ELISA, antibody coated, CSF without added tau (background), detection with biotinylated AT120 and HT7.
For test [4], the target named is phosphorylated tau prepared by incubating recombinant non-phosphorylated tau with a rat brain extract (UniProt P10636). The test is described as above.
Test [5] shares this target. Briefly: sandwich ELISA on CSF spiked with phosphorylated and non-phosphorylated tau, no amplification.

As to “monoclonal antibody AT180 secreted by the hybridoma deposited at ECACC on Dec. 22, 1992 under No. 92122204”, in test [1], the ELISA signal at 0.2 pg/ml tau stood at 85, the ELISA signal at 1 pg/ml tau came to 87, the ELISA signal at 5 pg/ml tau stood at 90 and the ELISA signal at 25 pg/ml tau was 85. In test [1], the ELISA signal at 100 pg/ml tau is 94, the ELISA signal at 500 pg/ml tau turned out to be 92 and the ELISA signal at 2000 pg/ml tau stood at 95. Also, in test [2], the ELISA signal at 0.2 pg/ml tau turned out to be 95, the ELISA signal at 1 pg/ml tau was 97, the ELISA signal at 5 pg/ml tau amounted to 106 and the ELISA signal at 25 pg/ml tau is 105. Moreover, in test [2], the ELISA signal at 100 pg/ml tau is 125, the ELISA signal at 500 pg/ml tau came out at 179 and the ELISA signal at 2000 pg/ml tau is 449. In addition, the ELISA signal at 0 pg/ml tau (blank) in test [3] turned out to be 89. Moreover, the ELISA signal at 0 pg/ml tau (blank) in test [4] was determined as 94. Besides, the detection limit in ELISA in test [5] came to 10 pg/mL.
On to “monoclonal antibody AT270 secreted by the hybridoma deposited at ECACC on Jul. 7, 1993 under No. 93070774”, for which, in test [1], the ELISA signal at 0.2 pg/ml tau came out at 91, the ELISA signal at 1 pg/ml tau is 90, the ELISA signal at 5 pg/ml tau came to 87 and the ELISA signal at 25 pg/ml tau stood at 92. In test [1], the ELISA signal at 100 pg/ml tau was found to be 96, the ELISA signal at 500 pg/ml tau is 94 and the ELISA signal at 2000 pg/ml tau is 98. In test [2], the ELISA signal at 0.2 pg/ml tau was 89, the ELISA signal at 1 pg/ml tau was determined as 83, the ELISA signal at 5 pg/ml tau was found to be 86 and the ELISA signal at 25 pg/ml tau was determined as 113. In addition, in test [2], the ELISA signal at 100 pg/ml tau was 158, the ELISA signal at 500 pg/ml tau worked out at 1040 and the ELISA signal at 2000 pg/ml tau was determined as 2650. The ELISA signal at 0 pg/ml tau (blank) in test [3] turned out to be 92. Further, the ELISA signal at 0 pg/ml tau (blank) in test [4] stood at 94. Further, in test [5], the detection limit in ELISA came out at 10 pg/mL.

Source of the values: patent US6500674.
